In ChEMBL document CHEMBL2074551, “Drug resistance and ATP-dependent conjugate transport mediated by the apical multidrug resistance protein, MRP2, permanently expressed in human and canine cells” (Mol Pharmacol, 1999) one finds Km data, which are given here for two proteins.

Substrate in data set [1]: C[C@]12CC[C@@H]3c4ccc(O)cc4CC[C@H]3[C@@H]1CC[C@@H]2O[C@@H]1O[C@H](C(=O)O)[C@@H](O)[C@H](O)[C@H]1O
Briefly: (§1) TP_TRANSPORTER: uptake in membrane vesicle from MRP2-expressing HEK-293 cells. The data set is classed as functional, cell membranes, HEK293.

Substrate in data set [2]: CCCCC/C=C\C\C=C/C=C/C=C/[C@@H](SC[C@@H](NC(=O)CC[C@H](N)C(=O)O)C(=O)NCC(=O)O)[C@@H](O)CCCC(=O)O
Described as §1. Format: functional, cell membranes, HEK293.

B1: ATP-binding cassette sub-family C member 2 (Rattus norvegicus) (protein)
chain: MDKFCNSTFWDLSLLESPEADLPLCFEQTVLVWIPLGFLWLLAPWQLYSVYRSRTKRSSITKFYLAKQVFVVFLLILAAIDLSLALTEDTGQATVPPVRYTNPILYLCTWLLVLAVQHSRQWCVRKNSWFLSLFWILSVLCGVFQFQTLIRALLKDSKSNMAYSYLFFVSYGFQIVLLILTAFSGPSDSTQTPSVTASFLSSITFSWYDRTVLKGYKHPLTLEDVWDIDEGFKTRSVTSKFEAAMTKDLQKARQAFQRRLQKSQRKPEATLHGLNKKQSQSQDVLVLEEAKKKSEKTTKDYPKSWLIKSLFKTFHVVILKSFILKLIHDLLVFLNPQLLKLLIGFVKSSNSYVWFGYICAILMFAVTLIQSFCLQSYFQHCFVLGMCVRTTVMSSIYKKALTLSNLARKQYTIGETVNLMSVDSQKLMDATNYMQLVWSSVIQITLSIFFLWRELGPSILAGVGVMVLLIPVNGVLATKIRNIQVQNMKNKDKRLKIMNEILSGIKILKYFAWEPSFQEQVQGIRKKELKNLLRFGQLQSLLIFILQITPILVSVVTFSVYVLVDSANVLNAEKAFTSITLFNILRFPLSMLPMVTSSILQASVSVDRLERYLGGDDLDTSAIRRVSNFDKAVKFSEASFTWDPDLEATIQDVNLDIKPGQLVAVVGTVGSGKSSLVSAMLGEMENVHGHITIQGSTAYVPQQSWIQNGTIKDNILFGSEYNEKKYQQVLKACALLPDLEILPGGDMAEIGEKGINLSGGQKQRVSLARAAYQDADIYILDDPLSAVDAHVGKHIFNKVVGPNGLLAGKTRIFVTHGIHFLPQVDEIVVLGKGTILEKGSYRDLLDKKGVFARNWKTFMKHSGPEGEATVNNDSEAEDDDDGLIPTMEEIPEDAASLAMRRENSLRRTLSRSSRSSSRRGKSLKNSLKIKNVNVLKEKEKEVEGQKLIKKEFVETGKVKFSIYLKYLQAVGWWSILFIILFYGLNNVAFIGSNLWLSAWTSDSDNLNGTNNSSSHRDMRIGVFGALGLAQGICLLISTLWSIYACRNASKALHGQLLTNILRAPMRFFDTTPTGRIVNRFSGDISTVDDLLPQTLRSWMMCFFGIAGTLVMICMATPVFAIIIIPLSILYISVQVFYVATSRQLRRLDSVTKSPIYSHFSETVTGLPIIRAFEHQQRFLAWNEKQIDINQKCVFSWITSNRWLAIRLELVGNLVVFCSALLLVIYRKTLTGDVVGFVLSNALNITQTLNWLVRMTSEAETNIVAVERISEYINVENEAPWVTDKRPPADWPRHGEIQFNNYQVRYRPELDLVLKGITCNIKSGEKVGVVGRTGAGKSSLTNCLFRILESAGGQIIIDGIDVASIGLHDLRERLTIIPQDPILFSGSLRMNLDPFNKYSDEEVWRALELAHLRSFVSGLQLGLLSEVTEGGDNLSIGQRQLLCLGRAVLRKSKILVLDEATAAVDLETDSLIQTTIRKEFSQCTVITIAHRLHTIMDSDKIMVLDNGKIVEYGSPEELLSNRGSFYLMAKEAGIENVNHTEL
As to B1, the Michaelis constant (Km) (as a rule, the substrate concentration at which the rate is half of its maximum) in data set [1] was determined as 6.9 µM; in data set [2] it was 1.1 µM.

B2: ATP-binding cassette sub-family C member 2 (Homo sapiens) (protein)
chain: MLEKFCNSTFWNSSFLDSPEADLPLCFEQTVLVWIPLGYLWLLAPWQLLHVYKSRTKRSSTTKLYLAKQVFVGFLLILAAIELALVLTEDSGQATVPAVRYTNPSLYLGTWLLVLLIQYSRQWCVQKNSWFLSLFWILSILCGTFQFQTLIRTLLQGDNSNLAYSCLFFISYGFQILILIFSAFSENNESSNNPSSIASFLSSITYSWYDSIILKGYKRPLTLEDVWEVDEEMKTKTLVSKFETHMKRELQKARRALQRRQEKSSQQNSGARLPGLNKNQSQSQDALVLEDVEKKKKKSGTKKDVPKSWLMKALFKTFYMVLLKSFLLKLVNDIFTFVSPQLLKLLISFASDRDTYLWIGYLCAILLFTAALIQSFCLQCYFQLCFKLGVKVRTAIMASVYKKALTLSNLARKEYTVGETVNLMSVDAQKLMDVTNFMHMLWSSVLQIVLSIFFLWRELGPSVLAGVGVMVLVIPINAILSTKSKTIQVKNMKNKDKRLKIMNEILSGIKILKYFAWEPSFRDQVQNLRKKELKNLLAFSQLQCVVIFVFQLTPVLVSVVTFSVYVLVDSNNILDAQKAFTSITLFNILRFPLSMLPMMISSMLQASVSTERLEKYLGGDDLDTSAIRHDCNFDKAMQFSEASFTWEHDSEATVRDVNLDIMAGQLVAVIGPVGSGKSSLISAMLGEMENVHGHITIKGTTAYVPQQSWIQNGTIKDNILFGTEFNEKRYQQVLEACALLPDLEMLPGGDLAEIGEKGINLSGGQKQRISLARATYQNLDIYLLDDPLSAVDAHVGKHIFNKVLGPNGLLKGKTRLLVTHSMHFLPQVDEIVVLGNGTIVEKGSYSALLAKKGEFAKNLKTFLRHTGPEEEATVHDGSEEEDDDYGLISSVEEIPEDAASITMRRENSFRRTLSRSSRSNGRHLKSLRNSLKTRNVNSLKEDEELVKGQKLIKKEFIETGKVKFSIYLEYLQAIGLFSIFFIILAFVMNSVAFIGSNLWLSAWTSDSKIFNSTDYPASQRDMRVGVYGALGLAQGIFVFIAHFWSAFGFVHASNILHKQLLNNILRAPMRFFDTTPTGRIVNRFAGDISTVDDTLPQSLRSWITCFLGIISTLVMICMATPVFTIIVIPLGIIYVSVQMFYVSTSRQLRRLDSVTRSPIYSHFSETVSGLPVIRAFEHQQRFLKHNEVRIDTNQKCVFSWITSNRWLAIRLELVGNLTVFFSALMMVIYRDTLSGDTVGFVLSNALNITQTLNWLVRMTSEIETNIVAVERITEYTKVENEAPWVTDKRPPPDWPSKGKIQFNNYQVRYRPELDLVLRGITCDIGSMEKIGVVGRTGAGKSSLTNCLFRILEAAGGQIIIDGVDIASIGLHDLREKLTIIPQDPILFSGSLRMNLDPFNNYSDEEIWKALELAHLKSFVASLQLGLSHEVTEAGGNLSIGQRQLLCLGRALLRKSKILVLDEATAAVDLETDNLIQTTIQNEFAHCTVITIAHRLHTIMDSDKVMVLDNGKIIECGSPEELLQIPGPFYFMAKEAGIENVNSTKF
B2: the Km in data set [1] was 7.2 µM; in data set [2], 1 µM.
